Assay results from publication PMC4805485.

Tests used:
[1] = target: diubiquitin G76C linked via K63, conjugated to BODIPY TMR C5-maleimide (UniProt P0CG47); test: fluorescence polarisation
[2] = target: K63-linked diubiquitin (UniProt P0CG47); test: SEC

Substance | fold reduction in binding affinity compared to the MyUb domain alone [1] [fold] | stoichiometry N (MyUb per diubiquitin) [2]
myosin VI 1050-1131 (from UniProt Q9UM54 1050-1131) (domain or fragment) | 4 | 
MyUb (G1080-R1131) (from UniProt Q9UM54 1080-1131) (domain or fragment) |  | 1
